Literature values in article PMC10451079.
Values belong to the substance of their own block, whether it stands above or below them.

Tests used:
NGALR (Mus musculus) = NGALR (Mus musculus) (UniProt Q9D9E0); assay: ligand-cell binding, Scatchard
MC4R = MC4R (UniProt P32245); assay: saturation and competition binding
MC1R = MC1R (UniProt Q01726)
MC3R = MC3R (UniProt P41968)
[1] = target: LRP2 (megalin) (Homo sapiens) (UniProt P98164); assay: SPR
[2] = target: NGALR 1-105 (Homo sapiens) (UniProt Q8WUG5)
UniProt Q8WUG5, sequence (Q8WUG5 1-105): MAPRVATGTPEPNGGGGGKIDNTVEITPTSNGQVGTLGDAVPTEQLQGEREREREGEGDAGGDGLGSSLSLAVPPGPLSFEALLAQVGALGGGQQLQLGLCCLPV

megalin (Homo sapiens) = megalin (Homo sapiens) (UniProt P98164)

UniProt Q9D9E0, sequence (Q9D9E0 whole entry): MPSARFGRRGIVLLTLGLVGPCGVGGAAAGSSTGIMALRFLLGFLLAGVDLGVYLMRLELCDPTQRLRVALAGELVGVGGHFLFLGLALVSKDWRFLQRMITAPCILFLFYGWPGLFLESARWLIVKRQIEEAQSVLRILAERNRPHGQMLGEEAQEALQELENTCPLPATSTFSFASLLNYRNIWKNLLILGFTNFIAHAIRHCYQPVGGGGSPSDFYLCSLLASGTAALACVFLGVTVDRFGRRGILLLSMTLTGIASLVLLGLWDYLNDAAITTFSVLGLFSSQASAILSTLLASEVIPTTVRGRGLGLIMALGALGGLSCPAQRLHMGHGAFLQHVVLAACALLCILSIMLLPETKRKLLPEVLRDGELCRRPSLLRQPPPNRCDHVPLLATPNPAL
UniProt Q01726, sequence (Q01726 whole entry): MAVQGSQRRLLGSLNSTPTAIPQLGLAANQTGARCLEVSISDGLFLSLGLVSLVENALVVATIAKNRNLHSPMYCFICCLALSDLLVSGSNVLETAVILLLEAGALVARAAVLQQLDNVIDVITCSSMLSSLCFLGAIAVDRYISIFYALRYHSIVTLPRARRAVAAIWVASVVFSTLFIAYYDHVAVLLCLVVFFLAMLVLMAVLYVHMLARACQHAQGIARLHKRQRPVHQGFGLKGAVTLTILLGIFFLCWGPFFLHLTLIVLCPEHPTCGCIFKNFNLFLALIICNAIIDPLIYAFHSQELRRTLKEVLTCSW
UniProt P41968, sequence (P41968 whole entry): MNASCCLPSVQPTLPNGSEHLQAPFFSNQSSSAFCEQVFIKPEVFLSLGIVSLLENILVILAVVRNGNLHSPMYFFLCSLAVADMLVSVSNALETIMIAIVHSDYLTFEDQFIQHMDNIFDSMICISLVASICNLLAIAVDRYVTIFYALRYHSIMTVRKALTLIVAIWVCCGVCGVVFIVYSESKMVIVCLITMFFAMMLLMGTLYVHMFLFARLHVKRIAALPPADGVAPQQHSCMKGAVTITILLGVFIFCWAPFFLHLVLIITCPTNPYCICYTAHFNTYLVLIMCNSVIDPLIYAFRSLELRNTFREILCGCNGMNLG
UniProt P32245, sequence (P32245 whole entry): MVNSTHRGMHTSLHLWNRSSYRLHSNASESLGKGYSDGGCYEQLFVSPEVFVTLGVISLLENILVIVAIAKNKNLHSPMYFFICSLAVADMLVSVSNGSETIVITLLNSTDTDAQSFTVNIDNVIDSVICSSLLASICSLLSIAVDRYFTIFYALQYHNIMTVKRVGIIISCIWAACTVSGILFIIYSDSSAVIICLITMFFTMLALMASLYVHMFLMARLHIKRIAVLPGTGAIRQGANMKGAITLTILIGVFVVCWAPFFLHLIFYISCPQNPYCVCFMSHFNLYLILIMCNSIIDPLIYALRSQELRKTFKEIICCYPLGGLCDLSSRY

Substance: LCN2 (24p3) (from UniProt P11672)
Kd (NGALR (Mus musculus)): 0.092 nM

Substance: LCN2 (from UniProt P11672)
Kd (MC4R): 51.4 nM | Kd (MC1R): 87 nM | Kd (MC3R): 82.1 nM

Substance: LCN2 (from UniProt P80188)
Kd [1]: 60 nM

Continued, values first:

Kd [2]: 20000 nM
Substance: LCN2 with ferric-enterobactin (from UniProt P80188)

Kd (megalin (Homo sapiens)): 420 nM
Substance: α1M (from UniProt P02760)
